Data as given in paper PMC7242495.

Tested on: T1, CadR (Pseudomonas aeruginosa), ORF:ef015ded
T1 sequence: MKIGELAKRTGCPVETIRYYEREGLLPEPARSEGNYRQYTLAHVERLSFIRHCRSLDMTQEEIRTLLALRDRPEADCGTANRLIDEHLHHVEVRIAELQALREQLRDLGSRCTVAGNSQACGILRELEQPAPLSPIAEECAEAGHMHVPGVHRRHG
Assay: EMSA
Details: EMSA: 10 mM Tris pH 8.0, 40 mM KCl, 10 mM MgCl2, 1 mM DTT, 5% glycerol, 250 nM CadR, 25 ng DNA, +/- Zn or EDTA, 30 min room temperature, gel at 4 C …

Sequence: GCTTCCGGTCAGCAGCAACGCCCATTTCAGGCGGGTCGAGTTGGTCTGGGCGAAGCTGTGCTCGTGTCCGGCGCTCATGGCGGCTCCTGTGGGGCGGTGGCGGCAGCACCAGCCTACAGGATAGGCAATTGCAAAACTGTCATGCGCCGGGCCGCTCTGGCGCGGCGTCCGCCGCTCCGCTAACCTGCGGCTCAGGCGCGGCCGCAGCCGCGCACGGAACGAGGGGGACGCATGACTCAACAGCACGA (double strand) [pczcD]
- binding: no binding

Sequence: CCATGATCATGTCCGTGACCGTGACCGTGACAGCAAGTGTCGGCGTGTTCGTGGCTCATGGAAACAATTCCCGTTTGACGTGTTGGGTGCGATTGCACACCCTGTAGCAACTACAGAGTCAAGCGGTACTGCCAATTCGGGTAGCCGCGTCGGCGATTGGAGGAGGGTTGGCATGAAGATCGGTGAGCTGGCGAAGAGAACCGGTT (double strand) [pcadA WT promoter (EMSA)]
- binding: binds
